According to patent US20090075291A1, “PEPTIDE-BASED REGULATION OF GAP JUNCTIONS” (The Research Foundation of State University of New York, priority 2006, published 2009):

Molecular target: Recombinant Cx43CT (carboxyl terminal domain of rat connexin43, residues 255-382, preceded by GPLG) (rat) (UniProt P08050)
Assay: SPR, peptide 1.0 mM

Recombinant Cx43CT (carboxyl terminal domain of rat connexin43, residues 255-382, preceded by GPLG) (rat), sequence (P08050 other isoform, or with tags, fused parts or gaps limits assumed): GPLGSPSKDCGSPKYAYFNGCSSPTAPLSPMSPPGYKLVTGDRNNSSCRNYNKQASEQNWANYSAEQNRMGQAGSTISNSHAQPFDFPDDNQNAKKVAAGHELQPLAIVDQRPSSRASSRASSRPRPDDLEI

Response Dose (arbitrary units): 4.6
Substance: Peptide 2502, AcRNP-NH2
